The target in data set [1] is T1, S-AC4 (SLCMV AC4) (Sri Lankan cassava mosaic virus).
T1 chain: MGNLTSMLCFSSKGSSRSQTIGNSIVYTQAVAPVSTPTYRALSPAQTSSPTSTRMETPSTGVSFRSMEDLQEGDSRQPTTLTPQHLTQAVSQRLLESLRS
Kind of data set: EMSA. Particulars: tags: GST fusion (pET41a), Ni-NTA purified; label: 5'-32P. A general note: Mobility shift assays separate free from complexed probe on a gel.

The target of data set [2] is T1, S-AC4 (SLCMV AC4). In words: EMSA; as efficient as unmodified. Conditions: tags: GST fusion (pET41a), Ni-NTA purified; label: 5'-32P.
Another data set has as its target T2, E-AC4 (EACMCV AC4) (East African cassava mosaic Cameroon …).
T2 chain: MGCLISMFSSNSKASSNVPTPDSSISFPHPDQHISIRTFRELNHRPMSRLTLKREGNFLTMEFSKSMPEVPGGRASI
Kind of data set: EMSA; data not shown. Conditions: tags: pET41a, Ni-NTA purified; label: 5'-32P.

In the next data set the target is T3, E-AC2 (EACMCV AC2) (East African cassava mosaic Cameroon …).
T3 chain: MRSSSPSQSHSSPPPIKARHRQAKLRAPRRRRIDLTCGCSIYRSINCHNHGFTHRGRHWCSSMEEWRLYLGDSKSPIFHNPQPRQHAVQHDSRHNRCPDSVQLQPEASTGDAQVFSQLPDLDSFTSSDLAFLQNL
Kind of data set: EMSA. Conditions: tags: GST fusion (pET41a), Ni-NTA purified; label: 5'-32P.

Data set [3] has as its target T1, S-AC4 (SLCMV AC4). In words: EMSA; competed by 10-, 50-, 100-fold unlabelled miR165. Conditions: tags: GST fusion (pET41a), Ni-NTA purified; label: 5'-32P.
Data set [4] addresses T1, S-AC4 (SLCMV AC4). Kind of data set: EMSA; text cites SEQ ID NO:29 (DNA probe); RNA oligo listed as SEQ 38. Particulars: tags: GST fusion (pET41a), Ni-NTA purified; label: 5'-32P.

As to AGGCAGUGUGGUUAGCUGGUUG (ssRNA) [miR34], in the data set with S-AC4 (SLCMV AC4) [1], the binding result is listed as “binds”.

Turning to UCGGACCAGGCUUCAUCCCCC (ssRNA, 2'-OMe at last (3') nucleotide) [2'-O-methyl miR165], the binding result with S-AC4 (SLCMV AC4) [2] is given as “binds”.

TCGGACCAGGCTTCATCCCCC (ssDNA) [DmiR-165 DNA]: the binding result with S-AC4 (SLCMV AC4) [1] was “no binding”.

For UUUGGAUUGAAGGGAGCUCUA (ssRNA) [miR159], the binding result with E-AC4 (EACMCV AC4) is recorded as “no binding”; with E-AC2 (EACMCV AC2), “no binding”; in the data set with S-AC4 (SLCMV AC4) [1], “binds”.

With UCGGACCAGGCUUCAUCCCCC (ssRNA) [miR165], in the data set with S-AC4 (SLCMV AC4) [3], the binding result is given as “binds”.

B1: DmiR-165::DmiR-165* DNA duplex (dsDNA)
DNA 1: TCGGACCAGGCTTCATCCCCC
DNA 2: GGGGGATGAAGCCTGGTCCGA
Turning to B1, the binding result in the data set with S-AC4 (SLCMV AC4) [1] is listed as “no binding”.

For GAGCUCCUUAAAGUUCAAACA (ssRNA) [miR159*], the binding result with E-AC2 (EACMCV AC2) was “no binding”.

B2: pre-miR159 first strand (ssRNA)
RNA: UAAAAAAGGAUUUGGUUAUAUGGAUUGCAUAUCUCAGGAGCUUUAACUUGCCCUGUUAAUGCUUUUACUCUUCUUUGGCUUGAAGGGAGCUCUAC
For B2, the binding result in the data set with S-AC4 (SLCMV AC4) [1] is listed as “no binding”.

B3: pre-miR159 duplex (dsRNA)
RNA 1: B2 RNA
RNA 2: GUAGAGCUCCUUAAAGUUCAAACAUGAGUUGAGCAGGGUAAAGAAAAGCUGCUAAGCUAUGGAUCCCAUAAGCCCUAAUCCUUGUAAAG
As for B3, in the data set with S-AC4 (SLCMV AC4) [1], the binding result is “no binding”.

AUGCGAUACAACCUGAAUCUU (ssRNA) [ta-siRNA siR255]: in the data set with S-AC4 (SLCMV AC4) [4], the binding result is reported as “binds”.

B4: ta-siRNA siR255::siR255* duplex (dsRNA)
RNA 1: AUGCGAUACAACCUGAAUCUU
RNA 2: GAGAUUCAGGUUGCAUCGCGC
Turning to B4, the binding result with S-AC4 (SLCMV AC4) [1] is recorded as “binds”.

In the case of UCCCUGAGACCUCAAGUGUGA (ssRNA) [lin-4], the binding result with S-AC4 (SLCMV AC4) [1] was “binds”.
